Laboratory results published in PMC4406585, “Generating Recombinant Antibodies against Putative Biomarkers of Retinal Injury” (PLoS ONE, 2015).
*: point of attachment. Biotin = O=C1N[C@H]2[C@H](CS[C@H]2CCCCC(=O)*)N1

Tests used:
[1] = molecular target: T1, GBB5 peptide (Guanine Nucleotide-Binding Protein Beta 5) (Oryctolagus cuniculus peptide, synthetic, SMILES …); assay: photonic crystal biosensor (SRU Biosystems BIND); biotinylated peptide, 50 ng/well, on streptavidin-coated 96-well biosensor plate, blocked with 5% BSA; scFv in decreasing concentration in 7 wells in elution buffer; overnight end-point change in peak wavelength; dose response curve, EC50 used to estimate Kd; conditions: both partners purified
T1 construct: four amino acid linker, printed in words: Glycine-Serine-Glycine-Serine; also called wild-type peptide; Ctrl; source: synthetic peptide
T1 chain: Biotin-GSGSKLHDVELHQVAERV-NH2

[2] = molecular target: T2, Guanine Nucleotide-Binding Protein Beta 5 (GBB5), chicken, endogenous (Gallus gallus, UniProt A0A8V0ZF95); assay: far-Western, overlay or dot blot; western blot: retinal lysates resolved by SDS-PAGE, on PVDF; probed with 1 μg/mL scFv in PBS for 2 h; anti-Flag-HRP M2, ECL; conditions: one partner purified
T2 construct: expected size 38.8 kDa printed; also called chicken homolog; source: endogenous, chicken retina or whole eye homogenate

[3] = molecular target: T3, Guanine Nucleotide-Binding Protein Beta 5 (GBB5), rabbit, endogenous (Oryctolagus cuniculus, UniProt Q6PNB6); assay: as above; conditions: one partner purified
T3 construct: expected size 38.7 kDa printed; also called rabbit GBB5; source: endogenous, rabbit retinal homogenate
T3 sequence (Q6PNB6 whole entry): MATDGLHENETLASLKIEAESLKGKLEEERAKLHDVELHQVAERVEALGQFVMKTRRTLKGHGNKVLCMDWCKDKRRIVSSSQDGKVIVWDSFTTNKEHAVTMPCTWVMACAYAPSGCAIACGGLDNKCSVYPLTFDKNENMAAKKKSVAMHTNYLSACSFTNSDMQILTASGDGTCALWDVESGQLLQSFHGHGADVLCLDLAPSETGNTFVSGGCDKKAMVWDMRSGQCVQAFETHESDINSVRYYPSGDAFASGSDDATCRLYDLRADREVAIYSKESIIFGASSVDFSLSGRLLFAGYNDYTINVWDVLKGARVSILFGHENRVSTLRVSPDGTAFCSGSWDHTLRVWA

[4] = molecular target: T4, Guanine Nucleotide-Binding Protein Beta 5 (GBB5), mouse, endogenous (Mus musculus, UniProt P62881, strain); assay: as above; conditions: one partner purified
T4 construct: also called mouse GBB5; source: endogenous, mouse retinal homogenate
T4 sequence (P62881 whole entry, looked up, change not shown): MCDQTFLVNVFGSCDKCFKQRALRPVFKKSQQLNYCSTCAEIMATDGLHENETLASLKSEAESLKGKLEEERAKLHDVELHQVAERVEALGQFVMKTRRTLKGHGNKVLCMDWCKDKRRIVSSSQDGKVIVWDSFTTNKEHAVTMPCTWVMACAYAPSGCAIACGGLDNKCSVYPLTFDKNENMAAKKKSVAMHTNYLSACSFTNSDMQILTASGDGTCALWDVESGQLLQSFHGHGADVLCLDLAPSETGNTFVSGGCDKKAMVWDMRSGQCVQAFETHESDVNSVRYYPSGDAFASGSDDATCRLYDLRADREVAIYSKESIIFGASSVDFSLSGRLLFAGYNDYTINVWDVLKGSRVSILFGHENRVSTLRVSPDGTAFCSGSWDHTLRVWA

[5] = molecular target: T1, GBB5 peptide (Guanine …); assay: ELISA; peptides at 25 nM on NeutrAvidin-coated plate; scFv at 30 nM, scFv-Fc at 10 nM in PBST; anti-FLAG-HRP, ABTS, 405 nm; conditions: both partners purified

B1: anti-GBB5-H9 scFv (scFv, V domains shown)
VH: EVQLVQSGGGLVQPGGSLRLSCAASGFTVSSNYMSWVRQAPGKGLEWVSSISSSSSYIYYADSVKGRFTISRDNAKNSLYLQMNSLRAEDTAVYYCARSYPFDYWGQGTLVTVSS
VL: NFMLTQPHSVSESPGKAVTISCTGSSGDVARNYVQWYQQRPGSAPIIVIYEDTQRPSGVPDRFSGSIDSSSNSASLTISGLTTEDEADYYCQSYDGHNVIFGGGTKLTVL
notes: VL of clone H9, from a phage library of human B-cell cDNA; 14 amino acid linker of the library vector between VL and VH; VH of clone H9, from a phage library of human B-cell cDNA; Order VL-linker-VH; also called anti-GBB5-scFv H9; source: E. coli TG-1 (pKP300ΔIIIΔAP, OmpA signal to the periplasm, low phosphate media), purified (IMAC); not shown: FLAG, N-terminal, kept
EC50 [1]: ~300 nM
binding result [2]: binds
binding result [3]: binds
binding result [4]: binds

B2: anti-GBB5-H9 scFv-Fc (Fc fusion, human)
VH: EVQLVQSGGGLVQPGGSLRLSCAASGFTVSSNYMSWVRQAPGKGLEWVSSISSSSSYIYYADSVKGRFTISRDNAKNSLYLQMNSLRAEDTAVYYCARSYPFDYWGQGTLVTVSS
VL: NFMLTQPHSVSESPGKAVTISCTGSSGDVARNYVQWYQQRPGSAPIIVIYEDTQRPSGVPDRFSGSIDSSSNSASLTISGLTTEDEADYYCQSYDGHNVIFGGGTKLTVL
notes: VL as in m1 (clone H9); 14 amino acid linker of the library vector between VL and VH; VH as in m1 (clone H9); H9 scFv coding region subcloned upstream of the Fc through NcoI and NotI; order after the scFv: Fc, (His)6, tri-FLAG; Homodimer through disulfide bonds of the Fc; also called Fc format of the H9 clone; bivalent Fc format; source: HEK-293 Freestyle cells, transiently transfected …
fold ELISA signal against the soluble scFv [5]: ~4.5 fold
